This data set deals with MS2 coat protein. In words: apparent KD of MS2 coat protein; designed switch direction (-1 OFF switch, 1 ON switch): -1; higher = weaker reporter binding. An outline of the steps: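 Apparent KD, taken as the median over clusters for each design, was obtained by curve-fitting normalised cluster fluorescence. Designed RNA switches had been transcribed on Illumina chips by stalled E. coli RNA polymerase and titrated with SNAP-549-labelled MS2 coat protein, doubling from 0.7 or 1.5 nM to 3 µM.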

Where [1] appears, read: input ligand: microRNA oligo, concentration not stated.

For “UUGAAGUCAUCAGGAUAUAGUAUUAAAGACAUUUAUUUUUUCAUACAUGAGGAUCACCCAUGUCGCUAGAAGGGAUUAUAGAUU [JR_ExcNG2_Sub079] (Eterna round: R96, puzzle: Exclusion NG 2)”, the “apparent KD of MS2 coat protein” value under setting [1] was determined as 0.0384 µM.
With “UUGACGGCAGGAUAUACAUGAGGAUCACCCAUGUAAAUUUUUCGUUUAACUUGAAUGUGUAGAAGGGCCAACUU [Ex3 #73] (Eterna round: R97, puzzle: Exclusion 3)”, the “apparent KD of MS2 coat protein” value (input ligand: FMN 200 uM) worked out at 0.0186 µM and the “apparent KD of MS2 coat protein” value (input ligand: none) worked out at 0.0168 µM.
For “UUGACGUCGUCAGGAUAUAGUUUUAAUGUCAUGCUUUUGUUUUUACAUGAGGAUCACCCAUGUCGCUAGAAGGGACUAAAGAUU [JR_ExcNG2_Sub012] (Eterna round: R96, puzzle: Exclusion NG 2)”, the “apparent KD of MS2 coat protein” value amounted to 0.0335 µM (input ligand: FMN 200 uM), 0.0328 µM under setting [1] and 0.035 µM (input ligand: none).
“UUGAUAUGAGGAUAUUGCUAAGUCGACAUGAGGAUCACCCAUGUGAAGGAAUGUUUAUUGCAAGAAGGCGUCGCGG [Eternabot (L1) Solution 10] (Eterna round: R97, puzzle: Exclusion 5)”: the “apparent KD of MS2 coat protein” value amounted to 0.0495 µM (input ligand: FMN 200 uM) and 0.0605 µM (input ligand: none).
With “UUGAUGUGAGGAUAUAUAUGGUGGUUUUUUUAUUUUUUAUUACUUGAGGAUCACCCAAGUAGAAGGCGCUACGU [JR_Ex2_Sub069] (Eterna round: R97, puzzle: Exclusion 2)”, the “apparent KD of MS2 coat protein” value runs as follows: (input ligand: FMN 200 uM) 0.0294 µM; (input ligand: none) 0.0393 µM.
Taken in the same sequence, the figures for “UUGCCUAAUGUUAGGAUAUGCGACGGGUGACCGUUGCAGAAGGAACAUGAGGAUCACCCAUGUUUAAUAAAAUC [JL-BMX4-4.43 ViennaUCT mod] (Eterna round: R97, puzzle: Brourd's mod of Exclusion 4)” were 0.0693 µM and 0.0149 µM.
Consider “UUGCGGCAAGGAUAUACAUGAGGAUCACCCAUGUAGUAUUUGGUGCUGGCGAGCUGGUGUAGAAGGUGCACGCA [EX3 B.3] (Eterna round: R97, puzzle: Exclusion 3)”, for which the “apparent KD of MS2 coat protein” value reads like this: (input ligand: FMN 200 uM) 0.0212 µM; (input ligand: none) 0.0161 µM.
“UUGGCAGGUUUUUUGCUCGACAUGAGGAUCACCCAUGUUGCGUGGGUUGUGUGUGUGCGGUGUAUAUAUAUGGUCCU [-24.8, -48.1 kcal, A 14%] (Eterna round: R97, puzzle: Sensor, turn-off variant 1)”: the “apparent KD of MS2 coat protein” value is, setting by setting: (input ligand: FMN 200 uM) 0.48 µM; (input ligand: none) 0.644 µM.
Taken in the same sequence, the figures for “UUGUAACAUGAGGAUCACCCAUGUGAGGAUAUGGUUAAGUAAUGUAAUGUAAAGUAAUCCAGAAGGCACAAGUU [1st #23] (Eterna round: R97, puzzle: Exclusion 1)” were 0.0703 µM and 0.0783 µM.
On to “UUGUACAUAGGAUAUAGUUGUUUGUACAUGAGGAUCACCCAUGUUAUGUAUCUUUUGCUUCUAGAAGGAUGUUCUU [JR_E5_Sub005] (puzzle: Exclusion 5)”, for which the “apparent KD of MS2 coat protein” value (Eterna round: R95, input ligand: microRNA oligo, concentration not stated) is 0.0322 µM.
With “UUGUACCGGUGAGGAUAUUUUUAAUAGAGCUUUAUGAUAUACAUGAGGAUCACCCAUGUUACUUUAAAGAAGGCAUCGGAUUAU [JL JR Sub091 mod 3] (Eterna round: R96, puzzle: Exclusion NG 2)”, the “apparent KD of MS2 coat protein” value is 0.0149 µM (input ligand: FMN 200 uM), 0.012 µM under setting [1] and 0.0206 µM (input ligand: none).
As for “UUGUCACAUGAGGAUCACCCAUGUGAGGAUAUGGCCCGCCCGGCGUGUGCUGGUUUUGUCAGAAGGCGCGUGGG [salish99_ex1_r4_028] (Eterna round: R97, puzzle: Exclusion 1)”, the “apparent KD of MS2 coat protein” value is 0.0246 µM (input ligand: FMN 200 uM) and 0.0196 µM (input ligand: none).
“UUGUUAUAUGAAGGAUAUACUUAACAUGAGGAUCACCCAUGUGGUGUUGUGAGUGAGUGAGUUUAGUAGAAGGUCAAUGAUUUU [JMF's solution 73] (Eterna round: R96, puzzle: Exclusion NG 2)”: the “apparent KD of MS2 coat protein” value by setting is: (input ligand: FMN 200 uM) 0.513 µM; under setting [1], 0.309 µM; (input ligand: none) 0.344 µM.

The record behind these values is the supplement of paper PMC9170038.
